Results on five molecules are retold here after PMC6748439, “Structural Insights into Curli CsgA Cross-β Fibril Architecture Inspire Repurposing of Anti-amyloid Compounds as Anti-biofilm Agents” (PLoS Pathogens, 2019).

By stoichiometry N is commonly meant a count of units in the complex or per binding partner.

Series [1] concerns the target CsgA, the major curli subunit (recombinant, C-terminal His6-tag) (Escherichia coli) (UniProt P28307). Put plainly: SEC-MALS; freshly purified CsgA concentrated to 1.8 mg/ml, Superdex 75 10/300, miniDAWN TREOS; hexamer beside a majority of monomer.
Series [2] concerns the molecule itself. Kind of series: crystal structure; peptides with free (unmodified) termini, hanging drop, 293 K; micro-crystals, data collected at 100 K; LNIYQY and TASNSS crystals grown in a mixture with TAIVVQ of CsgB, which was not present in the crystals.

In the case of “CsgA, the major curli subunit (recombinant, C-terminal His6-tag) (from UniProt P28307 21-151) (natural protein)”, the stoichiometry N in series [1] was found to be 6.

B1: CsgA segment 45LNIYQY50 (R1 repeat) (peptide)
peptide: LNIYQY
notes: CsgA residues 45-50 (R1 repeat), numbered on UniProt P28307; Unmodified termini for crystallography; in the seeding assay Ac-LNIYQY-NH2, in the ThT assay with D-peptides capped at the C-terminus; also called R1 segment 45LNIYQY50; source: synthetic peptide, bought: GL Biochem (Shanghai) Ltd
Regarding B1, in series [2], the binding result is “binds”.

B2: CsgA segment 129TASNSS134 (R4-R5 loop) (peptide)
peptide: TASNSS
notes: Unmodified termini for crystallography; source: synthetic peptide, bought: GL Biochem (Shanghai) Ltd
As for B2, the binding result in series [2] is recorded as “binds”.

B3: CsgA segment 137VTQVGF142 (R5 repeat) (peptide)
peptide: VTQVGF
notes: Unmodified termini for crystallography; in the seeding assay Ac-VTQVGF-NH2, in the ThT assay with D-peptides capped at the C-terminus; source: synthetic peptide, bought: GL Biochem (Shanghai) Ltd
B3: the binding result in series [2] is listed as “binds”.

B4: CsgA segment 47IYQYGG52 (R1 repeat) (peptide)
peptide: IYQYGG
notes: CsgA residues 47-52 (R1 repeat), numbered on UniProt P28307; Unmodified termini for crystallography; in the seeding assay Ac-IYQYGG-NH2; also called R1 segment 47IYQYGG52; source: synthetic peptide, bought: GL Biochem (Shanghai) Ltd
For B4, the binding result in series [2] is “binds”.
